Measured values taken from the supplement of paper PMC9170038.

Tested on: MS2 coat protein
Test: apparent KD of MS2 coat protein; designed switch direction (-1 OFF switch, 1 ON switch): -1; higher = weaker reporter binding
Outline: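 Transcription of designed RNA switches on Illumina chips was done by stalled E. coli RNA polymerase. SNAP-549-labelled MS2 coat protein was then titrated in doubling steps from 0.7 or 1.5 nM to 3 µM, with steps of 0.8–1.5 h at the lowest and 10–20 min at the highest concentration. The per-design median over clusters of curve-fitted normalised fluorescence is reported as apparent KD.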

[1] = input ligand: microRNA oligo, concentration not stated
[2] = Eterna round: R95, input ligand: microRNA oligo, concentration not stated
[3] = Eterna round: R95, input ligand: FMN 200 uM
[4] = Eterna round: R95, input ligand: none

Row | Sequence | apparent KD of MS2 coat protein (input ligand: FMN 200 uM) | apparent KD of MS2 coat protein (input ligand: none) | apparent KD of MS2 coat protein [2] | further results
1 | UCUGUUAUGCGAGGAUAUCGACCAUUCCUCUUAACAUGAGGAUCACCCAUGUGCUAAUCCUUCAACGAGAAGGCGCUCUUACUC [JR_ExcNG2_Sub069] (Eterna round: R96, puzzle: Exclusion NG 2) | 346 nM | 268 nM | – | apparent KD of MS2 coat protein [1]: 114 nM
2 | UCUUAUUGCAAGGAUAUGCUUUUUAUUUCUUUUGCAGAAGGUGCAACAUGAGGAUCACCCAUGUUUCCGGGUAU [JR_E6_Sub034] (puzzle: Exclusion 6) | – | – | 23.8 nM | –
3 | UCUUCACAUGAGGAUCACCCAUGUGAGGAUAUGGUUUCGCUGGCCGUAGCCAGUGGAACCAGAAGGCGCAUGAU [Mat - Exclusion 1 - JL Mod - D7] (Eterna round: R97, puzzle: Exclusion 1) | 21.5 nM | 26.1 nM | – | –
4 | UCUUGCUGGCGAGGAUAUCCUGUGCGGUUCCGGCUCGUGUCUGUUACAUGAGGAUCACCCAUGUGGGAGAAGGUGUCUGUGGCC [Design 97] (Eterna round: R96, puzzle: Exclusion NG 2) | 18.6 nM | 21.9 nM | – | apparent KD of MS2 coat protein [1]: 16.7 nM
5 | UGAAAGGUAGGAUAUACGAAGAAAAAGGGUAGAAUAAUAACACAUGAGGAUCACCCAUGUAGAAGGACCAAAGG [Mat - Exclusion 2 - Mod of my Tesla design - D9] (puzzle: Exclusion 2) | – | – | 23.2 nM | apparent KD of MS2 coat protein [3]: 70.1 nM; apparent KD of MS2 coat protein [4]: 25.2 nM
6 | UGAAUGUCAGAGGAUAUGCACGAUUGGACCGAGGCAGAAGGCUGAACAUGAGGAUCACCCAUGUCAAGAUCUUC [Eternabot (L1) Solution 93] (Eterna round: R97, puzzle: Exclusion 6) | 180 nM | 26.3 nM | – | –
7 | UGAGAACAUGAGGAUCACCCAUGUAAGGAUAUGCGAAGAGUUUGGAGAGGUUGAGGAGGCAGAAGGUACGGGAG [JR_Exclu1_Sub045] (puzzle: Exclusion 1) | – | – | 49.9 nM | apparent KD of MS2 coat protein [3]: 50.2 nM; apparent KD of MS2 coat protein [4]: 74.3 nM
8 | UGAGCUGAAGGAUAUGCGUAAUCACGGUGACGUGUAGAUCUACAUGAGGAUCACCCAUGUAGAAGGUCAGUUCU [Mat - Exclusion 2 - JL Mod - D33] (Eterna round: R97, puzzle: Exclusion 2) | 17 nM | 16.1 nM | – | –
9 | UGAGCUUCAGGAUAUACGUGACGUCCGUGAGGACGAAGGUUACAUGAGGAUCACCCAUGUAGAAGGGAAGUUCU [Mat - Exclusion 2 - JL Mod - D31] (Eterna round: R97, puzzle: Exclusion 2) | 60.8 nM | 31.6 nM | – | –
10 | UGAGUGCGUGUUAGGAUAUGGUUUGGUAUUUCGGGCUAGAAGGGACAUGAGGAUCACCCAUGUAAUUGGCGGGU [-17.2, -16.9 kcal, 22% A] (Eterna round: R97, puzzle: Brourd's mod of Exclusion 4) | 259 nM | 227 nM | – | –
11 | UGAGUGUUAGGAUAUCGCGGUUAGGCGAGUUGCUUAAUGAUCGAGAAGGGACAUGAGGAUCACCCAUGUGGGAC [Eternabot (L1) Solution 40] (Eterna round: R97, puzzle: Exclusion 4) | 127 nM | 112 nM | – | –
12 | UGAUCUAGCGGAGGAUAUACAUGAGGAUCACCCAUGUAUAGUCCAUGUGGUGACACGUGGAACAUGUAGAAGGCCGCUAGAUCU [JL ENG2 3.83] (Eterna round: R96, puzzle: Exclusion NG 2) | 228 nM | 23.1 nM | – | apparent KD of MS2 coat protein [1]: 24.8 nM
13 | UGAUCUAGGCGAGGAUAUACAUGAGGAUCACCCAUGUAAACGUGACAUGAAAACAUGUCACGAAUGUAGAAGGCGCCUAGAUCU [JL ENG2 3.54] (Eterna round: R96, puzzle: Exclusion NG 2) | 21.7 nM | 13.3 nM | – | apparent KD of MS2 coat protein [1]: 13.2 nM
14 | UGAUCUUUUGUUAGGAUAUGCUGUUGUUUUCAACAGCAGAAGGGACAUGAGGAUCACCCAUGUCUUGUCAUAAA [Magic-04] (puzzle: Brourd's mod of Exclusion 4) | – | – | 12.7 nM | –
15 | UGAUCUUUUGUUAGGAUAUGCUGUUUUUUUUUACAGCAGAAGGGACAUGAGGAUCACCCAUGUCUUGUCAUAAA [Magic-05] (puzzle: Brourd's mod of Exclusion 4) | – | – | 12.4 nM | –
16 | UGAUGACAUGAGGAUCACCCAUGUCAGGAUAUGCUUCGGCUUCGGAAAUGAAGUUGAAGUAGAAGGGACUGUCG [-27.1, -24.1 kcal, A 28% sequence 3 bis] (Eterna round: R97, puzzle: Exclusion 1) | 37.7 nM | 27.8 nM | – | –
17 | UGAUGUACUCAGGAUAUGAGUAGCUUUCGAGCAUCAGAAGGGAGUACAUGAGGAUCACCCAUGUUGGCCAUGUU [EX6 C.9] (Eterna round: R97, puzzle: Exclusion 6) | 81.2 nM | 683 nM | – | –
18 | UGAUUCCUAGGAUAUGCUGGAUAUGAGGUCCCGAGUUGCCGACAUGAGGAUCACCCAUGUAGAAGGAGGUGUCG [Eternabot (L1) Solution 66] (Eterna round: R97, puzzle: Exclusion 2) | 199 nM | 105 nM | – | –
19 | UGCAAGCUUUUAAGAUCCUACAUGAGGAUCACCCAUGUGGCUCGUCUUAUACGUACUGUGACGAAAGUCACGGUACG [JL TOV1 3.98] (Eterna round: R97, puzzle: Sensor, turn-off variant 1) | 25.4 nM | 22.8 nM | – | –
20 | UGCAAGCUUUUGAGAUCCUACAUGAGGAUCACCCAUGUGCUCGUCUUAUAACGUACUGUGACGAAAGUCACGGUACG [JL TOV1 3.97] (Eterna round: R97, puzzle: Sensor, turn-off variant 1) | 184 nM | 222 nM | – | –
21 | UGCAUGCUAGGAUAUACGAAACAUUAGGGUUCGUCGUAUGAACAUGAGGAUCACCCAUGUAGAAGGAGCGUGCU [Mod6 of JL-ex2-2.15 mat747 mod] (puzzle: Exclusion 2) | – | – | 16.8 nM | –
22 | UGCAUGCUAGGAUAUACGGGACAUUAGGGUUCGUCGUAUGGACAUGAGGAUCACCCAUGUAGAAGGAGCGUGCU [Mod4 of JL-ex2-2.15 mat747 mod] (puzzle: Exclusion 2) | – | – | 18.7 nM | –
23 | UGCCCGGUUAGAGGAUAUCUACUGUGACUGGGUUUUCCAAAACAUGAGGAUCACCCAUGUGACGGAGAGAAGGCUAGCCUUAAA [Anedanage] (Eterna round: R96, puzzle: Exclusion NG 2) | 26.8 nM | 40.1 nM | – | apparent KD of MS2 coat protein [1]: 31.1 nM
